This passage reports Kd results from article PMC5447677, “Pathogenic Leptospira Secreted Proteases Target the Membrane Attack Complex: A Potential Role for Thermolysin in Complement Inhibition” (Frontiers in Microbiology, 2017).

One may read the Kd as the equilibrium constant for the complex coming apart.

What all share (test): ELISA; thermolysin coated on microtiter plates (100 ul; 10 ug/ml, 16 h, 4 C), blocked with 3% BSA in PBS; C6, C7, C8 or C9 added (100 ul; 0-5 ug/ml) for 1 h at 37 C; detected with goat polyclonal antibodies, absorbance at 492 nm; Kd by non-linear regression Y = Bmax*X/(Kd + X); for C6 also with a fixed amount (1 ug) in 0-600 mM NaCl (reduced only at 600 mM) or 0.05-1 ug heparin (dose-dependent inhibition)
Details in all cases: both partners purified

The target in test [1] is T1, Complement component C6, purified from human plasma (human, UniProt P13671 22-934).
T1 construct: human complement component C6, single polypeptide chain (~100 kDa), purified from plasma; source: bought: Complement Technology (purified from human plasma)
T1 sequence (P13671 22-934): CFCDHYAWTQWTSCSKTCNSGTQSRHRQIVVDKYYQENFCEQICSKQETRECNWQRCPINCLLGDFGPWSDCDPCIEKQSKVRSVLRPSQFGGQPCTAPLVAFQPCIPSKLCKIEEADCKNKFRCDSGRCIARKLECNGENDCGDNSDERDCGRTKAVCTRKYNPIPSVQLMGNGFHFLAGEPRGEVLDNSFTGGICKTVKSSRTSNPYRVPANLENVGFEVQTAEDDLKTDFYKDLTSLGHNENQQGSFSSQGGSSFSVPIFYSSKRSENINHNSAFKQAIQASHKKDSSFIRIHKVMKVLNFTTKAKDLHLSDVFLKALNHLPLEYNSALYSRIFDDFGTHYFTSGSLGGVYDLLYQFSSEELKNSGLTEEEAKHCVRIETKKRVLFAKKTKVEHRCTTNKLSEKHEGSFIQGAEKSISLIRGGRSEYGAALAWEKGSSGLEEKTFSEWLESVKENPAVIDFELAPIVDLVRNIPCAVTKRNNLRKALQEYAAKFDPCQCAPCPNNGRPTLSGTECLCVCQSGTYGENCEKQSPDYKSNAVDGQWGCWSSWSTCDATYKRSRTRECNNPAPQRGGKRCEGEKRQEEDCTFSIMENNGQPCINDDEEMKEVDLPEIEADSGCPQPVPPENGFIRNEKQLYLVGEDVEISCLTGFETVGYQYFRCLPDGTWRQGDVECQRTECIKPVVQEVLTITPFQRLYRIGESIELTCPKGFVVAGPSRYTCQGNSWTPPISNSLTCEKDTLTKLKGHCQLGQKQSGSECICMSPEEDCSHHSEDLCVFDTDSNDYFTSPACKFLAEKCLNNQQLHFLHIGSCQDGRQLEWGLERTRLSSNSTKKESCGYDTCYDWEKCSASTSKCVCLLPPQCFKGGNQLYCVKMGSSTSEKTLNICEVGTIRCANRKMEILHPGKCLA

The target of test [2] is T2, Complement component C7, purified from human plasma (human, UniProt P10643 23-843).
T2 construct: human complement component C7, 95 kDa single chain, purified from plasma; source: bought: Complement Technology (purified from human plasma)
T2 sequence (P10643 23-843): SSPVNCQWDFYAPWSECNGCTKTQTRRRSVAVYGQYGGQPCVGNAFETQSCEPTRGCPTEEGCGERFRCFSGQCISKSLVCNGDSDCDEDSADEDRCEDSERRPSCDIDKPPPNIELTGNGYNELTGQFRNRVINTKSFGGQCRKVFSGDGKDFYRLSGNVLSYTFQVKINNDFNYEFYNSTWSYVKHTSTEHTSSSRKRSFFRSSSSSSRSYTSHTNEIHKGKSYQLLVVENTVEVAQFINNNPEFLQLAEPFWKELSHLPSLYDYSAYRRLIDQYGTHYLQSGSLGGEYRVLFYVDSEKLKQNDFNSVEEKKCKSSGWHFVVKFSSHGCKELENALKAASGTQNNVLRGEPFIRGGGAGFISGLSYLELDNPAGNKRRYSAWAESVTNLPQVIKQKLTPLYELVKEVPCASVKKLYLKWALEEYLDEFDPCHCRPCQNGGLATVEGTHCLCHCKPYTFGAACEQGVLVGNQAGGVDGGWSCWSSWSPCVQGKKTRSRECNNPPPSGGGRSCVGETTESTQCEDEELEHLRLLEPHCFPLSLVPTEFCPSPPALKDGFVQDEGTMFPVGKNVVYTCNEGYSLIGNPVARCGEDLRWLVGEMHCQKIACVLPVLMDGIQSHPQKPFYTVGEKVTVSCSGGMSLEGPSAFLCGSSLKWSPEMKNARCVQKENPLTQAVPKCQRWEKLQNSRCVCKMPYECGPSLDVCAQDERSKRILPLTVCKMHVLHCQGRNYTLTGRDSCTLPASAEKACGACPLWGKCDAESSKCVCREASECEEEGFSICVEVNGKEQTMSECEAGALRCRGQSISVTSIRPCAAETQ

The target of test [3] is T3, Complement component C8, purified from human plasma (human, UniProt P07357 31-584; P07358 55-591; P07360 21-202).
T3 construct: human complement component C8 alpha chain (~64 kDa), purified from plasma as intact C8; human complement component C8 beta chain (~64 kDa), purified from plasma as intact C8; human complement component C8 gamma chain (~22 kDa), purified from plasma as intact C8; Intact C8 of three polypeptide chains (alpha, beta, gamma); source: bought: Complement Technology (purified from human plasma); copies: …
T3 sequence (P07357 31-584, chain 1 of 3): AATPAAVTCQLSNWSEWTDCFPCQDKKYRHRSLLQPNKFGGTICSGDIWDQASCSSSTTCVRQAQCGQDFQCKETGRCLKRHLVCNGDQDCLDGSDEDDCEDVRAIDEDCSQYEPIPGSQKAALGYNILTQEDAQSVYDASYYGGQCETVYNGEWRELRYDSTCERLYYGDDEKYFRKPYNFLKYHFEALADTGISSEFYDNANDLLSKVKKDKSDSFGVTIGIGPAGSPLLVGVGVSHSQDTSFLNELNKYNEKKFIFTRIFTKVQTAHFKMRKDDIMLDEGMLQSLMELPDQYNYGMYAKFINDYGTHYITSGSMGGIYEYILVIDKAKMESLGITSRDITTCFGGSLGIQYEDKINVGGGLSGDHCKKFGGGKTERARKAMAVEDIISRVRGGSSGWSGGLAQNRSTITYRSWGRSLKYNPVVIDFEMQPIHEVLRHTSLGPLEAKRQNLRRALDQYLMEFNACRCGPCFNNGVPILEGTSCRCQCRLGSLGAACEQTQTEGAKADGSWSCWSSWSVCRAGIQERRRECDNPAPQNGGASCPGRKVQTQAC
T3 sequence (P07358 55-591, chain 2 of 3): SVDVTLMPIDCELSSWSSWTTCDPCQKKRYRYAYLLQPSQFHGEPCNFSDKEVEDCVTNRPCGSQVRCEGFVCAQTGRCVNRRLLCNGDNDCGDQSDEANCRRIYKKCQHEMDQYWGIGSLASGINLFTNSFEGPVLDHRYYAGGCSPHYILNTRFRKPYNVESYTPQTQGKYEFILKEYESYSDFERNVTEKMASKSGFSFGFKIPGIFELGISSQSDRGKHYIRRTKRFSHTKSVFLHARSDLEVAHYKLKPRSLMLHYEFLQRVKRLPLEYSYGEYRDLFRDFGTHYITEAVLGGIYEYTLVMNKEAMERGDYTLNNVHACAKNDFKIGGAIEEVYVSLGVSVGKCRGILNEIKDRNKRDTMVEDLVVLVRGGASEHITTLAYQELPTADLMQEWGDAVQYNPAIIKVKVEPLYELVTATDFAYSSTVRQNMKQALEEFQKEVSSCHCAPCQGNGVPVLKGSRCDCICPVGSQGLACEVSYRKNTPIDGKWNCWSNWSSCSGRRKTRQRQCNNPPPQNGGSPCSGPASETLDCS
T3 sequence (P07360 21-202, chain 3 of 3): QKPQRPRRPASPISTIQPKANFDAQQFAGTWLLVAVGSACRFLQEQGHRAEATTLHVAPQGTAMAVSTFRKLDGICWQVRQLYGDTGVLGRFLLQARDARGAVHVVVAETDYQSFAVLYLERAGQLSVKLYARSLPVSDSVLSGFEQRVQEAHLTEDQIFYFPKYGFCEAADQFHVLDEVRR

Test [4] deals with T4, Complement component C9, purified from human plasma (human, UniProt P02748 22-559).
T4 construct: human complement component C9, single 71 kDa polypeptide chain, purified from plasma; source: bought: Complement Technology (purified from human plasma)
T4 sequence (P02748 22-559): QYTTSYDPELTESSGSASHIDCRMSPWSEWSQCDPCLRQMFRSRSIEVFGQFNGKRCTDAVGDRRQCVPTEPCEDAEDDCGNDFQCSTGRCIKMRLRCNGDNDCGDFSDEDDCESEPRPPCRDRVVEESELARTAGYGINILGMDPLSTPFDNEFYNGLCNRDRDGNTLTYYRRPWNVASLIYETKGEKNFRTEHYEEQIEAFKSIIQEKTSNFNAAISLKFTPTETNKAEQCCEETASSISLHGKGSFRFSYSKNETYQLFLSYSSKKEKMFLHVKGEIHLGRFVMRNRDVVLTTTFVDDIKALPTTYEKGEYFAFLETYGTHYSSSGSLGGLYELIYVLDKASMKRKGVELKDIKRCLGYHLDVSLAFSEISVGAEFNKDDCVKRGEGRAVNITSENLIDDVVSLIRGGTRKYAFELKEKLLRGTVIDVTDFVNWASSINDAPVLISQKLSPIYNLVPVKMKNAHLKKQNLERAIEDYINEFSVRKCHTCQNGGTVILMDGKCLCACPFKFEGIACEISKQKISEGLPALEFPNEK

B1: recombinant thermolysin (LIC13322), PepSY-M4 fragment (domain or fragment)
chain: EFYQVPENFNSSPKLSESEALSKTLKHIGAKKYIWESVEREAALKRKKNDPNASYFPKGELLVYEHSLGKSNTKKEFRLAYKFGIASIDPPISRYVYVDSNSGEILSSKDARRYEGVQFPSPKPPIEIDIDYSRCIIDKEYCIEQGTAMTRFSGLQSITTWTAGKTNHFELKDNSRGGGIYTYSWEFVKDPLEDIQLLNIPMIDTNNSWSQSEYHDNYNHDALLDAHWGIEMTYDYFKSIHNRLSYDGDNSRIFNNVHYFNAFVANNAYWDPVTEEIYYVYCPHKNSICKGFNLPILLDPKYEDFTSLDIVSHEFGHGINGDLAGFNLDMEPGALDEGFSDIWNVGVNNYVNKVLGMQKNIWLVGDETVPGGGMRSVSNPKSTTVMSPGPNTYHGDLWDFEDNEAHTNSLVLSHWFYTLSKGKQGFNDYECTYNVSGIGIEKAERIAYVALLFLSSTSGYTSARTYAIIAAKLLYGLFSSEVKSTIDAWDAVAVPAETTSRGGQGMVRPRHYIASVKLSNVTNDSGNDCGYKDNSYLLPTVLRGVTYNMVLLSQGSASNPSKVHKWRVWIDFNQNGSFESSEMVVQDTVNSSFGGTLQKSIKIPTNALTGYAKMRVSMKAAQSGEAYQGSSESFVEGEVEDYIVSILDFSL
For the molecule B1, the Kd in test [1] was 31.8 ± 2.2 nM; in test [2] it was 17.8 ± 1.3 nM; in test [3], 62 ± 7.1 nM; in test [4], 56.8 ± 5.2 nM.
